Molecular target: putative cross-reactive peptide arising from SH2D3A, on HLA-A*02:01 of T2 cells (human)
Assay: cell-based or functional assay

B1: TCR2 (TCR, V domains shown)
V domain 1: EDQVTQSPEALRLQEGESSSLNCSYTVSGLRGLFWYRQDPGKGPEFLFTLYSAGEEKEKERLKATLTKKESFLHITAPKPEDSATYLCAVQAWGGGSQGNLIFGKGTKLSVKP
V domain 2: DSGVTQTPKHLITATGQRVTLRCSPRSGDLSVYWYQQSLDQGLQFLIQYYNGEERAKGNILERFSAQQFPDLHSELNLSSLELGDSALYFCASSAGDRGYEQYFGPGTRLTVTE
EC50 in T2/peptide TDCC assay, against the DCAF4L2 target peptide: 87 fold

Source: patent publication US20250009799A1 (Amgen, published 2025)
